# Columns and labels:
# [1] = biological target: IgE antibodies of a mixture of sera of patients allergic to P. judaica (human); assay: ELISA inhibition, extract on solid phase, pooled sera; reference nPar j 1-Par j 2
# [2] = biological target: IgE antibodies of a mixture of sera of patients allergic to P. judaica (human); assay: ELISA inhibition, extract on solid phase, pooled sera
# [3] = biological target: IgE antibodies of a mixture of sera of patients allergic to P. judaica (human); assay: ELISA inhibition, extract on solid phase, pooled sera preincubated with inhibitor
# [4] = biological target: IgE antibodies of a mixture of sera of patients allergic to P. judaica (human); assay: ELISA inhibition, extract on solid phase, pooled sera; reference Q1
fold higher protein concentration than nPar j 1-Par j 2 for the same degree of inhibition [1] [times],reduction of allergenicity (IgE-binding) against nPar j 1-Par j 2 [2] [%],maximum degree of inhibition of IgE binding to P. judaica extract [3] [%],fold more protein needed than nPar j 1-Par j 2 [1] [times],degree of inhibition of IgE binding to P. judaica extract [3] [%],fold less allergenic than the chimeric protein Q1 [4] [times],Binder
10000,100,60,–,–,–,chimeric protein Q3 (protein) MRGSHHHHHHGILPETCGTMVRALMPCLPFVQGKEKEPSKGLQIQTAMKTYSDIDGKLVSEVRSSKLPPIDVNMDCKTLGVVPRQPQLPVSLRHGPVTGPSDPAHKARLERPQIRVPPPAPEKAEFEEACGKVVQDIMPCLHFVKGEEKEPSKEDIIVRATKGISGIKNELVAEVPGTLPPITADFDCSKIQSTIFRGYY
–,–,–,500,50,–,chimeric protein Q1 (protein) MRGSHHHHHHGILQETCGTMVRALMPCLPFVQGKEKEPSKGCCSGAKRLDGETKTGPQRVHACECIQTAMKTYSDIDGKLVSEVPKHCGIVDSKLPPIDVNMDCKTLGVVPRQPQLPVSLRHGPVTGPSDPAHKARLERPQIRVPPPAPEKAEFEEACGKVVQDIMPCLHFVKGEEKEPSKECCSGTKKLSEEVKTTEQKREACKCIVRATKGISGIKNELVAEVPKKCDIKTTLPPITADFDCSKIQSTIFRGYY
10000,100,60,–,–,20,chimeric protein Q2 (protein) MRGSHHHHHHGILQETCGTMVRALMPCLPFVQGKEKEPSKGLQIQTAMKTYSDIDGKLVSEVPKHCGIVDSKLPPIDVNMDCKTLGVVPRQPQLPVSLRHGPVTGPSDPAHKARLERPQIRVPPPAPEKAEFEEACGKVVQDIMPCLHFVKGEEKEPSKEDIIVRATKGISGIKNELVAEVPKKCDIKTTLPPITADFDCSKIQSTIFRGYY

# — patent publication US20140286972A1
